Reference: US20180346538A1 (IMMATICS BIOTECHNOLOGIES, published 2018)

Molecular target: T1, HLA-A*02:01 (human)
T1 construct: MHC monomer captured on streptavidin plates; also called peptide-receptive MHC molecules; MHC class I
Assay: UV-ligand exchange ELISA (anti-b2m), yield grade

peptide exchange yield [%]	Binder
50 to 75	SLLNQDLHWSL
50 to 75	GLLDLPFRVGV
